In patent US20170226211A1:

Biological target: Cynomolgus/Rhesus CTLA-4 (cynomolgus/rhesus)
Assay: ELISA, antibody coated, Cynomolgus/Rhesus CTLA-4 titrated

EC50 (read off the curve): 0.2 nM
Substance: Ipilimumab (antibody)
